B1: ZBTB22 (parent)
chain: FSSSSQEAFAASAVGSGERRGGGP

Variants of: B1
Experiment: protein stability index of a GFP-peptide fusion (GPS, HEK-293T) (PSI 1-6); higher = more stable
Conditions: c terminus: a fixed tail appended
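Also: lentivirally expressed fusions sorted by FACS into six bins by GFP to DsRed ratio, PSI derived from sequencing read proportions per bin multiplied by bin number.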

Going from FFSSSQEAFAASAVGSGERRGGGP [S2F] to YSSSSQEAFAASAVGSGERRGGGP [F1Y], the protein stability index falls from 4.08 to 3.48.

Compared with FSSSSQESFAASAVGSGERRGGGP [A8S], FSSSSQEAFAASADGSGERRGGGP [V14D] is higher in protein stability index: 4.18 for the first, 4.5 for the second.

First: FSSSCQEAFAASAVGSGERRGGGP [S5C]
Second: FSSSSQEAFAASWVGSGERRGGGP [A13W]
The protein stability index of the first is lower: 2.79 for the first, 3.02 for the second.

Compared with FSSSSQEAFAASAVGEGERRGGGP [S16E], FSSSSQEAIAASAVGSGERRGGGP [F9I] is higher in protein stability index: 4.25 for the first, 4.83 for the second.

Going from FSSHSQEAFAASAVGSGERRGGGP [S4H] to FSSSSQEAFAASHVGSGERRGGGP [A13H], the protein stability index falls from 3.21 to 3.17.

Going from FSSSSQEAYAASAVGSGERRGGGP [F9Y] to FSSSSQEAFAASAVKSGERRGGGP [G15K], the protein stability index falls from 3.56 to 3.41.

First: FSSSSQEAFAASAVGSPERRGGGP [G17P]
Second: FSSSSQENFAASAVGSGERRGGGP [A8N]
The protein stability index of the first is lower: 3.22 for the first, 4.21 for the second.

First: FSSSSQEAFAASAVGSGTRRGGGP [E18T]
Second: FSHSSQEAFAASAVGSGERRGGGP [S3H]
The protein stability index of the first is lower: 2.87 for the first, 4.13 for the second.

First: FSSSSQEAFTASAVGSGERRGGGP [A10T]
Second: FSSSSQEADAASAVGSGERRGGGP [F9D]
The protein stability index of the first is lower: 3.26 for the first, 5.44 for the second.

Compared with FSSSSQEAFAASAVGSGERRGGGE [P24E], FSSSSQEAFAASATGSGERRGGGP [V14T] is lower in protein stability index: 3.8 for the first, 3.27 for the second.

Going from FSSSSQEAMAASAVGSGERRGGGP [F9M] to FASSSQEAFAASAVGSGERRGGGP [S2A], the protein stability index falls from 4.96 to 2.29.

Going from FSSSSQEAFAASAVGSGPRRGGGP [E18P] to FSSSSQEVFAASAVGSGERRGGGP [A8V], the protein stability index falls from 2.97 to 2.11.

Compared with FSSSSQGAFAASAVGSGERRGGGP [E7G], FSSSSQEAFAASAVGSGERRGWGP [G22W] is lower in protein stability index: 3.12 for the first, 2.19 for the second.

Compared with FSSSSQEAFAALAVGSGERRGGGP [S12L], FSSSSQEAFMASAVGSGERRGGGP [A10M] is higher in protein stability index: 2.36 for the first, 3.16 for the second.

Going from FSSSSQERFAASAVGSGERRGGGP [A8R] to FSSSSQEAFAASAIGSGERRGGGP [V14I], the protein stability index falls from 3.96 to 2.55.

Going from FSSSFQEAFAASAVGSGERRGGGP [S5F] to FSSSSQEAFAASAVGHGERRGGGP [S16H], the protein stability index rises from 2.45 to 3.27.

Going from FSSSSQEAFAASAPGSGERRGGGP [V14P] to FSSSSQEAFAAVAVGSGERRGGGP [S12V], the protein stability index falls from 3.9 to 2.87.

Compared with FSSSSQEKFAASAVGSGERRGGGP [A8K], FSSSSQEAFAASAVGSGERRPGGP [G21P] is lower in protein stability index: 3.79 for the first, 3.69 for the second.

First: FSSSSQEAFAASAVGSGERRGSGP [G22S]
Second: FSSSSQEAFAASAVGSGGRRGGGP [E18G]
The protein stability index of the first is lower: 3.33 for the first, 3.84 for the second.

Going from FSSSSQEAFAASARGSGERRGGGP [V14R] to FSSSSQEAFAASAVGSGERRGCGP [G22C], the protein stability index falls from 3.65 to 3.29.

Going from FSSSSQEAFAASAVGMGERRGGGP [S16M] to FSSSSQEAFAASAVGSGERRGGNP [G23N], the protein stability index rises from 3.37 to 3.4.

Compared with FSSSSKEAFAASAVGSGERRGGGP [Q6K], FSNSSQEAFAASAVGSGERRGGGP [S3N] is higher in protein stability index: 1.31 for the first, 3.76 for the second.

Compared with FSSSSQIAFAASAVGSGERRGGGP [E7I], FSSSSQEAFAASAVGAGERRGGGP [S16A] is higher in protein stability index: 2.24 for the first, 3.29 for the second.

Compared with FSSSEQEAFAASAVGSGERRGGGP [S5E], FSSSSMEAFAASAVGSGERRGGGP [Q6M] is lower in protein stability index: 4.15 for the first, 2.85 for the second.

Going from FSSSSYEAFAASAVGSGERRGGGP [Q6Y] to FSSSSQEAFQASAVGSGERRGGGP [A10Q], the protein stability index rises from 2.13 to 4.09.

Compared with FSSSSQEAFAASAVGSGERRGMGP [G22M], FSSSSDEAFAASAVGSGERRGGGP [Q6D] is higher in protein stability index: 2.44 for the first, 4.44 for the second.

Going from TSSSSQEAFAASAVGSGERRGGGP [F1T] to FSSSSQEAFAASAVGSFERRGGGP [G17F], the protein stability index falls from 5.39 to 3.18.

First: FSSSSQEAFAASFVGSGERRGGGP [A13F]
Second: FSSSSQEQFAASAVGSGERRGGGP [A8Q]
The protein stability index of the first is lower: 2.64 for the first, 4.09 for the second.

First: FSSSSQEAFAAMAVGSGERRGGGP [S12M]
Second: FSSTSQEAFAASAVGSGERRGGGP [S4T]
The protein stability index of the first is lower: 2.63 for the first, 3.29 for the second.

First: FSSSSQEAFAASAVGSGEARGGGP [R19A]
Second: FSSSSQEAGAASAVGSGERRGGGP [F9G]
The protein stability index of the first is lower: 3.43 for the first, 4.56 for the second.

First: FSSSSQEAFAASAVGSGERRGGQP [G23Q]
Second: FSSSSQEAFAASAVGPGERRGGGP [S16P]
The protein stability index of the first is lower: 3.26 for the first, 3.4 for the second.

Going from FSSSSFEAFAASAVGSGERRGGGP [Q6F] to FWSSSQEAFAASAVGSGERRGGGP [S2W], the protein stability index rises from 2.18 to 3.16.

First: FSSSSQEAFAASAVGSGERRKGGP [G21K]
Second: FSYSSQEAFAASAVGSGERRGGGP [S3Y]
The protein stability index of the first is lower: 2.69 for the first, 3.71 for the second.

First: FSSSSQEAFAASAVGSGERRGLGP [G22L]
Second: FTSSSQEAFAASAVGSGERRGGGP [S2T]
The protein stability index of the first is higher: 3.65 for the first, 2.53 for the second.

Going from FSSSSQEAFAASAVGSGVRRGGGP [E18V] to FSSSSQEAFAASAVGNGERRGGGP [S16N], the protein stability index rises from 2.49 to 3.38.

First: FSSSSQEAFAASAVGSGERRCGGP [G21C]
Second: FSSSSQEAFAASAVGSGERRGYGP [G22Y]
The protein stability index of the first is higher: 3.48 for the first, 2.57 for the second.

Compared with FSSSSQEAFAASAKGSGERRGGGP [V14K], FSSSSQEAFAASAVGSGERHGGGP [R20H] is lower in protein stability index: 3.33 for the first, 2.96 for the second.

First: FSSSSQEAFAASAVGSGERRGNGP [G22N]
Second: FSSSSQEAFAASAVGSGERRGGMP [G23M]
The protein stability index of the first is higher: 3.55 for the first, 2.91 for the second.

Going from FSPSSQEAFAASAVGSGERRGGGP [S3P] to FSSSSQEAFAASAVGSGERCGGGP [R20C], the protein stability index falls from 2.99 to 2.9.

Going from FSSSSQEAPAASAVGSGERRGGGP [F9P] to FSSSSQEAFEASAVGSGERRGGGP [A10E], the protein stability index falls from 4.98 to 4.74.

Going from FSSSSQEAFAASAVGSGERNGGGP [R20N] to FSSSSQEAFAASAVGSGEREGGGP [R20E], the protein stability index rises from 3.36 to 4.12.

Going from FSSSSQEAFAASAVWSGERRGGGP [G15W] to FSSSSQEAFAASAVFSGERRGGGP [G15F], the protein stability index falls from 2.72 to 2.02.

Going from FSSMSQEAFAASAVGSGERRGGGP [S4M] to FSSSSQEAFAASAVGSGERDGGGP [R20D], the protein stability index rises from 3.36 to 3.64.

Going from FSSSSQEAFAKSAVGSGERRGGGP [A11K] to FSSSVQEAFAASAVGSGERRGGGP [S5V], the protein stability index falls from 4.5 to 4.15.

Going from FSSSSQEAFAASAVGSGERRTGGP [G21T] to DSSSSQEAFAASAVGSGERRGGGP [F1D], the protein stability index rises from 2.94 to 5.7.

Going from ASSSSQEAFAASAVGSGERRGGGP [F1A] to FSSSSQEAFAASAVGSGERRGGGG [P24G], the protein stability index falls from 4.9 to 2.6.

First: FSSSSQKAFAASAVGSGERRGGGP [E7K]
Second: FSSSSQEAFAASAVGSGFRRGGGP [E18F]
The protein stability index of the first is lower: 2.82 for the first, 2.86 for the second.

— the supplement of paper PMC10567573
